Experimental data taken from article PMC4567348, “Functional Characterization of Hevea brasiliensis CRT/DRE Binding Factor 1 Gene Revealed Regulation Potential in the CBF Pathway of Tropical Perennial Tree”.

B1: RD29a (dsDNA)
DNA 1: ATATACTACCGACATGAGTTCT
DNA 2: AGAACTCATGTCGGTAGTATAT
B2: COR15a (dsDNA)
DNA 1: TTTCATGGCCGACCTGCTTTTTT
DNA 2: AAAAAAGCAGGTCGGCCATGAAA
B3: RD29b (dsDNA)
DNA 1: CTACCGACATGAGTTCCAAAAAA
DNA 2: TTTTTTGGAACTCATGTCGGTAG
B4: COR15b (dsDNA)
DNA 1: CTGATGGCCGACCTCTTTTTT
DNA 2: AAAAAAGAGGTCGGCCATCAG

Tests used:
GST-HbCBF1 [1] = target: T1, GST-HbCBF1 (Hevea brasiliensis, UniProt Q4KP31 1-231); assay: competition EMSA; 125-fold molar excess cold competitor vs COR15a probe; 10 mM Tris-HCl pH 7.5, 100 mM KCl, 10% glycerol, 1 mM DTT, 0.1% NP-40, 1 mM spermidine, 0.5 ug fish sperm DNA, 4 ug protein, 1 ng probe, 25 C; details: protein: recombinant; tags: N-terminal GST (pGEX-6p-1); blunt
T1 sequence (Q4KP31 entry or part of it): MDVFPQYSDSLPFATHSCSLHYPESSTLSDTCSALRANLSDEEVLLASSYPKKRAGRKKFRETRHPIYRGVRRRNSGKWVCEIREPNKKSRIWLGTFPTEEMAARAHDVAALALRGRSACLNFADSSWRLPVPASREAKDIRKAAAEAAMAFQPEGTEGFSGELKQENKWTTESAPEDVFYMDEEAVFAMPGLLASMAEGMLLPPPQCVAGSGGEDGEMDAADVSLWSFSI

GST-HbCBF1 [2] = target: T1, GST-HbCBF1; assay: EMSA; 10 mM Tris-HCl pH 7.5, 100 mM KCl, 10% glycerol, 1 mM DTT, 0.1% NP-40, 1 mM spermidine, 0.5 ug fish sperm DNA, 4 ug protein, 1 ng probe, 25 C; details: protein: recombinant; tags: N-terminal GST (pGEX-6p-1); label: 5'-digoxigenin (hot probe); blunt

Binder	binding result (GST-HbCBF1 [1])	binding result (GST-HbCBF1 [2])
B1	binds	–
B2	–	binds
B3	binds	–
B4	binds	–
